Data on two substances can be found in paper PMC5815094.

Broadly, the Kd is the free concentration of one partner at which half of the binding sites on the other are occupied at equilibrium, for simple one-to-one binding.

Details in all cases: ES buffer: 10 mM Tris pH 8.0, 10 mM KCl, 40 mM NaCl, 1 mM MgCl2; MST + 0.05% Tween-20, room temperature; EMSA + 25 ng tRNA per 10 ul, 37 C 15 min (Fig 6D); NMR …
For orientation: In EMSA bound probe runs differently from free probe, usually more slowly.

For series [1], the target named is Hfq;Crc (Pseudomonas aeruginosa PAO1;Pseudomonas aeruginosa PAO1) (UniProt Q9HUM0+Q51380). The series is described as follows: MST.
The target in series [2] is Hfq (Pseudomonas aeruginosa PAO1) (UniProt Q9HUM0). Nature of the series: MST.
The target is the same in series [3]. The series is described as follows: EMSA.

For the substance PrrF2 sRNA, the Kd worked out at 35 nM in series [1] and 6.7 nM in series [2].
Turning to “GGACUGGUCGCGAGGCCAGCAGGUAAGCUGAGAGACCAAGCAGUCGGACUCUUCAGAUUAUCUCCUCAUCAGGCUAAUCACGGUUUCGACCCGGCACUUUGCCGGGUCUUUUUUUG [PrrF2 sRNA]”, the binding result in series [3] was “binds”.
